Laboratory results taken from the supplement of paper PMC10065799, “High-throughput profiling of sequence recognition by tyrosine kinases and SH2 domains using bacterial peptide display” (eLife, 2023).

What was measured:
[1] = system: AncSZ; assay: phosphorylation enrichment, bacterial display (enrichment ratio); higher = better substrate or ligand; peptides without Tyr show the background
[2] = target: EPHB1 (UniProt P54762); assay: as above
[3] = target: EPHB2 (UniProt P29323); assay: as above
Sequence of EPHB2 (P29323 whole entry, looked up): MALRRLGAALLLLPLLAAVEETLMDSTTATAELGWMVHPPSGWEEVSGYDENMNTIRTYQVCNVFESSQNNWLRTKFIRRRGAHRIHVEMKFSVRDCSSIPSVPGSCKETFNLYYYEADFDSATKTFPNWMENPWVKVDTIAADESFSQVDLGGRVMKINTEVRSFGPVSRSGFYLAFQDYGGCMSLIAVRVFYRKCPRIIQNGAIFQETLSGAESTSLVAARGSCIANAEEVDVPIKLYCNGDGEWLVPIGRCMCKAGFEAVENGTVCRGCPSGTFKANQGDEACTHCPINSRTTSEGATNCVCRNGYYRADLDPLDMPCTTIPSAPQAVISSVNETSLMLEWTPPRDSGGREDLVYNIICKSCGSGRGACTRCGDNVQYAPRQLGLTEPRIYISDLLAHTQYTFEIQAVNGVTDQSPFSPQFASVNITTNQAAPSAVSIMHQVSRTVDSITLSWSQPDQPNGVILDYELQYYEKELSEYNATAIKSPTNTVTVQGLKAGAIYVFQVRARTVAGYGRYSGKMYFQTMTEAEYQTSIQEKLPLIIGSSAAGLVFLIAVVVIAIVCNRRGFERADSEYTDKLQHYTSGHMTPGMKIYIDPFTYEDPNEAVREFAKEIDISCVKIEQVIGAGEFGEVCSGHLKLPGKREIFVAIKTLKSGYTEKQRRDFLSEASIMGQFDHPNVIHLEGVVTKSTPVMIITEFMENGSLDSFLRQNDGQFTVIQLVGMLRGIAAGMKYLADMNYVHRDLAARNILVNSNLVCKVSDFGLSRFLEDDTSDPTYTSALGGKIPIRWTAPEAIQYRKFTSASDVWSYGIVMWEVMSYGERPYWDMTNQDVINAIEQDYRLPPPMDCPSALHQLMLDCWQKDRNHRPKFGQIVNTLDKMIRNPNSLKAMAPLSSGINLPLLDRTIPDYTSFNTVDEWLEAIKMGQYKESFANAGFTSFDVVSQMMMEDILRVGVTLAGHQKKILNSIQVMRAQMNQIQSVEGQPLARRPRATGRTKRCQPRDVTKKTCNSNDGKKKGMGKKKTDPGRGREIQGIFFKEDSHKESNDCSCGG

[4] = target: FGFR1 (UniProt P11362); assay: as above
Sequence of FGFR1 (P11362 whole entry, looked up): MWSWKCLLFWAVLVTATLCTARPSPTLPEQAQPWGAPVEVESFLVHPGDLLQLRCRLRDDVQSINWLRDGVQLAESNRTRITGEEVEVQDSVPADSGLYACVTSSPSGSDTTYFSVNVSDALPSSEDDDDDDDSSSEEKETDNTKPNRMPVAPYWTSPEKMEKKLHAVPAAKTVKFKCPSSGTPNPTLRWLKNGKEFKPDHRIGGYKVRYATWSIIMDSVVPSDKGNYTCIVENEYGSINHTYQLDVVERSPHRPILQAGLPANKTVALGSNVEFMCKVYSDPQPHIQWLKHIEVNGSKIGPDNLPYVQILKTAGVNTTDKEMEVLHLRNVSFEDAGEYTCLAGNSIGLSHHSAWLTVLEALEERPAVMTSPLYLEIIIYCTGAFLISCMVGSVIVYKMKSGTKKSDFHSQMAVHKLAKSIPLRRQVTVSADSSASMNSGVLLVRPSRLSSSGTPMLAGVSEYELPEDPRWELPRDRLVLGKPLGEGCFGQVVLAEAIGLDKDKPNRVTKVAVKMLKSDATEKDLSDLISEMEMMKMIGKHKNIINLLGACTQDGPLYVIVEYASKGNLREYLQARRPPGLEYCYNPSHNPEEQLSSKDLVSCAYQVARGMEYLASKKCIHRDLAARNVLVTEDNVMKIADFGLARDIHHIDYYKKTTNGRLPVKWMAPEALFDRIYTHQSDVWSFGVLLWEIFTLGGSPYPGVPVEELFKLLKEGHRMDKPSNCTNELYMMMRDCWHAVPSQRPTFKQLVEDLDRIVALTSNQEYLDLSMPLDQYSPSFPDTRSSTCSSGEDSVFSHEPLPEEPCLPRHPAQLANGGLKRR

[5] = target: FGFR3 (UniProt P22607); assay: as above
[6] = system: Fer (mouse); assay: as above
[7] = target: Fes (UniProt P07332); assay: as above
Sequence of Fes (P07332 whole entry, looked up): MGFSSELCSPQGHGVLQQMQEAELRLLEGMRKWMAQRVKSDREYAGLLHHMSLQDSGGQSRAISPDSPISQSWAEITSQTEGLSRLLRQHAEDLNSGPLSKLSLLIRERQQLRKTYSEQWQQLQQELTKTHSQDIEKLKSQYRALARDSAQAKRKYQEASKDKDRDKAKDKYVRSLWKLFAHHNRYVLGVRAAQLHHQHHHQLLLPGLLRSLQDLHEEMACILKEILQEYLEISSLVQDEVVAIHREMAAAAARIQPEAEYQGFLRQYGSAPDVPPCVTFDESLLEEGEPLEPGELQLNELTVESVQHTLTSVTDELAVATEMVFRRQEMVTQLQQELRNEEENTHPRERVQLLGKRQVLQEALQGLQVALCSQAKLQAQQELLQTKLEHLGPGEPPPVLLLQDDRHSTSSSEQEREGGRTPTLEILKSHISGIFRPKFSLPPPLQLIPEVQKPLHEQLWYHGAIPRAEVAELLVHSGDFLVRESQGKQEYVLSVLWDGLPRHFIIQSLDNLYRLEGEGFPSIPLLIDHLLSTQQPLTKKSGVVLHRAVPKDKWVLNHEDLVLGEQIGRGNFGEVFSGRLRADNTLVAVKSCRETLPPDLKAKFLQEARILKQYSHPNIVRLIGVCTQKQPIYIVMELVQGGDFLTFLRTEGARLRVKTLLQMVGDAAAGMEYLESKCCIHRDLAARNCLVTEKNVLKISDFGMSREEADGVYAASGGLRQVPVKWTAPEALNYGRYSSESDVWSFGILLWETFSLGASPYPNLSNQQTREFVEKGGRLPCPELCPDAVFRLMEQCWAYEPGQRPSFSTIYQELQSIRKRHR

[8] = target: Fyn (UniProt P06241); assay: as above
Sequence of Fyn (P06241 whole entry, looked up): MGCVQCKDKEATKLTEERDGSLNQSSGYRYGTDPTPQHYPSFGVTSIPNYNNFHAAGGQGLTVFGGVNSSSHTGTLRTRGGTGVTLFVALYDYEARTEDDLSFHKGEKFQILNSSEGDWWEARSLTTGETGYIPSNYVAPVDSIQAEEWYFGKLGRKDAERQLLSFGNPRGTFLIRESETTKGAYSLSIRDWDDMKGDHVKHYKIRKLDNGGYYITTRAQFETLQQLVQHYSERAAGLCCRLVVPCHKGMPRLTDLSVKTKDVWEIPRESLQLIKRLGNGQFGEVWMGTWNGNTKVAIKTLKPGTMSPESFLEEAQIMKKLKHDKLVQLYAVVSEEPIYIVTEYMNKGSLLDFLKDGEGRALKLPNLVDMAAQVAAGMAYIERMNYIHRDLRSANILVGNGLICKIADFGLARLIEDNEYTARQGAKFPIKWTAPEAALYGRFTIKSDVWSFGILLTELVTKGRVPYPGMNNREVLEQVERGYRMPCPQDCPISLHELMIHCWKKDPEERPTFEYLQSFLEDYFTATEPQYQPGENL

[9] = target: Hck (UniProt P08631); assay: as above
Sequence of Hck (P08631 whole entry, looked up): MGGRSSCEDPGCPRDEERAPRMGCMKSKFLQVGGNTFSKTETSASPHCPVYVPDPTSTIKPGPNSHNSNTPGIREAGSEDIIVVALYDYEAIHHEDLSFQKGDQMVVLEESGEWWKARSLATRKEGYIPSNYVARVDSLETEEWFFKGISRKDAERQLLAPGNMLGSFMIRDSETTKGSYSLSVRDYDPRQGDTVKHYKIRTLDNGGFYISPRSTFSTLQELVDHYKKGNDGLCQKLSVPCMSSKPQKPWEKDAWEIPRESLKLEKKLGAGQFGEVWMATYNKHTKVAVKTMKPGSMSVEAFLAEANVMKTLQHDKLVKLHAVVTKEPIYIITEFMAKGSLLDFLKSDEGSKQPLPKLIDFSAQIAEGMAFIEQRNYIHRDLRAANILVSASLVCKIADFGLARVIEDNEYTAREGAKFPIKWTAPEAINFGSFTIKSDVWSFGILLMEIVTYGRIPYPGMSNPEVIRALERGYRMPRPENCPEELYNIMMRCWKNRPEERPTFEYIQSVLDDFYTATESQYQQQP

[10] = target: Jak2 (UniProt O60674); assay: as above
[11] = target: MERTK (UniProt Q12866); assay: as above
[12] = system: c-Abl (mouse); assay: as above
[13] = system: c-Src; assay: as above
[14] = target: Grb2 SH2 (UniProt P62993); assay: SH2 binding enrichment of the phosphorylated peptide, bacterial display (enrichment ratio); higher = better substrate or ligand; peptides without Tyr show the background
Sequence of Grb2 SH2 (P62993 whole entry, looked up): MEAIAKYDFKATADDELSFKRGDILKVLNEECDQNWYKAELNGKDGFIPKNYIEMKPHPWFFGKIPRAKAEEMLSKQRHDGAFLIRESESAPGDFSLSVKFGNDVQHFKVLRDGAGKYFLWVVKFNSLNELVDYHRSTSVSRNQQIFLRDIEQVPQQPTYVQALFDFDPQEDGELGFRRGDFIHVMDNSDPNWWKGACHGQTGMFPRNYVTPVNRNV

[15] = target: SHP2-C SH2; assay: as above
[16] = target: c-Src SH2; assay: as above
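Wherever SH2 binding enrichment of the phosphorylated peptide, bacterial display is given: peptide library displayed on the E. coli surface as eCPX fusions, selected cells deep-sequenced, score is each peptide's frequency after selection divided by its frequency in the input.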
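Wherever phosphorylation enrichment, bacterial display is given: 11-residue human phosphosite peptides and single-mutation variants displayed on the E. coli surface, counted by deep sequencing, each peptide's frequency after selection divided by its frequency in the unselected input library; frequency after pTyr selection over input frequency; kinase dosed for 20-30% of maximal phosphorylation in three min.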

Sequence of EPHB1 (P54762 whole entry, looked up): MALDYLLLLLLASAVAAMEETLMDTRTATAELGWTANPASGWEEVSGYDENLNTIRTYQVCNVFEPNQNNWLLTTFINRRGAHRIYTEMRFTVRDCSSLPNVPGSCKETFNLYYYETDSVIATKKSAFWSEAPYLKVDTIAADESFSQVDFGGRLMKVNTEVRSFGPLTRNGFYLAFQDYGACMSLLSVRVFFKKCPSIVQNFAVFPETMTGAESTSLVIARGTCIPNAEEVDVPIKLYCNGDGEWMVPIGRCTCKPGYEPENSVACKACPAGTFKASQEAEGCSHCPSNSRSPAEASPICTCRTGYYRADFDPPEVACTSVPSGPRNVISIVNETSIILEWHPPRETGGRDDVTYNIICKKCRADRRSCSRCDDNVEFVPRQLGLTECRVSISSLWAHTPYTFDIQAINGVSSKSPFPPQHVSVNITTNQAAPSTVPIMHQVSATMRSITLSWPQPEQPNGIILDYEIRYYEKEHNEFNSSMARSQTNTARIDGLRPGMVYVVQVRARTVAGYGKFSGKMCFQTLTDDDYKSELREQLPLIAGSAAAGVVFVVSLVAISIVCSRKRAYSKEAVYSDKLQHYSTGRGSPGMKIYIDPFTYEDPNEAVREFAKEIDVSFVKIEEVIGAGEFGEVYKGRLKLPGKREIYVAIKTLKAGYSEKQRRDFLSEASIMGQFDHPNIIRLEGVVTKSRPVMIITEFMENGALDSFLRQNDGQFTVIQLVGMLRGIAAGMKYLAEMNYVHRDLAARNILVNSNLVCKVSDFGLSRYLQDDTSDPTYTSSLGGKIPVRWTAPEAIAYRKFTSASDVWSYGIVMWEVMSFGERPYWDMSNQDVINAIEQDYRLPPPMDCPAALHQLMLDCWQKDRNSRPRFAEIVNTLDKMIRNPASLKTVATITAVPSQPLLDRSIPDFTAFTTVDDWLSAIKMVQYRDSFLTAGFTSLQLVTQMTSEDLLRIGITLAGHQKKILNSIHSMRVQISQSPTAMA

Sequence	phosphorylation enrichment [1]	phosphorylation enrichment [2]	phosphorylation enrichment [3]	phosphorylation enrichment [4]	phosphorylation enrichment [5]	phosphorylation enrichment [6]	phosphorylation enrichment [7]	phosphorylation enrichment [8]	phosphorylation enrichment [9]	phosphorylation enrichment [10]	phosphorylation enrichment [11]	phosphorylation enrichment [12]	phosphorylation enrichment [13]	SH2 binding enrichment [14]	SH2 binding enrichment [15]	SH2 binding enrichment [16]
NPQKSYLIRLY [WAS_Y83_F84L]	0.827	0.603	0.49	0.471	0.65	0.395	0.989	0.408	0.47	0.74	0.388	0.522	0.374	1.22	1.15	0.874
RSSKMYLKTRS [LPL_Y329]	1.07	0.484	0.792	0.8	0.885	0.541	1.24	0.631	0.758	0.827	1.53	0.585	0.452	0.83	0.712	0.553
VYSATYHPDHW [EFCAB12_Y544_P541S]	1.02	1.06	1.13	1.33	1.18	4.14	1.24	6.37	5.4	1.05	10.3	2.06	5.17	0.97	0.788	0.634
KGRGEYFAIKA [PRKCD_Y374]	0.702	0.943	0.905	4.32	2.67	0.451	0.666	0.426	0.614	0.702	0.381	0.769	0.47	1.2	1.29	1.22
KQCSDYARELE [MYH3_Y1140_R1137C]	1.23	0.597	0.605	0.654	0.769	0.578	1.26	0.552	0.571	1.19	0.557	0.929	0.514	1.02	0.704	0.619
EVNETYVPKEF [ALB_Y521_D518N]	1.19	0.584	0.543	0.524	0.796	0.518	1.26	0.564	0.534	1.19	0.477	0.851	0.523	0.759	0.501	0.404
GVLKEYGGKVL [CPS1_Y529_V531G]	0.588	0.393	0.343	0.361	0.415	0.354	0.686	0.364	0.403	0.537	0.374	0.546	0.396	0.963	0.559	0.29
TTHRGYDSDNP [MMUT_Y146_A141T]	0.744	0.685	0.532	0.542	0.823	0.423	0.859	0.685	0.665	0.699	0.53	0.642	0.389	1.02	0.595	0.413
KSEMSCIDGEK [SORBS1_Y485_Y485C]	0.862	0.491	0.567	0.522	0.686	0.44	1.06	0.431	0.447	0.658	0.406	0.793	0.423	1.03	0.855	0.585
RLLVVYPWPQR [HBG2_Y36_T39P]	0.97	0.443	0.606	0.527	0.703	0.512	1.7	0.489	0.518	0.617	0.917	0.494	0.456	1.8	1.67	1.46
TINPIYEHVGF [CHN1_Y143_YF]	1.02	19.7	23.4	0.739	0.802	18.2	9.52	12.6	11.6	1.18	11.7	12.5	9.42	0.83	0.69	0.518
REATAYLHGRL [AGXT_Y297_A295T]	0.665	0.539	0.662	0.534	0.533	0.615	0.793	0.595	0.488	0.871	0.374	0.63	0.521	0.794	0.571	0.483
AVEDQYYCVDC [FHL1_Y207]	2.07	0.53	0.598	5.7	4.65	0.684	1.3	0.853	0.796	1.39	0.72	0.786	1.97	0.877	0.748	1.08
FFPANYVAPMT [GRAP2_Y324_L319F]	0.924	4.84	2.17	0.65	0.646	0.41	0.826	0.471	0.469	0.865	0.768	1.36	0.449	0.814	0.883	0.6
MAHDRYAAICS [OR8H2_Y123]	0.547	0.41	0.444	0.494	0.439	0.372	0.646	0.437	0.48	0.44	0.424	0.396	0.424	0.9	1.91	5.4
NPSYNYEIVNR [DYNC1H1_Y3379]	0.898	13	6.48	0.552	0.572	1.26	0.776	0.479	0.737	0.656	0.725	0.562	0.519	0.675	0.602	0.82
RRGMPYGGRGD [TGM1_Y312]	0.878	0.839	0.881	0.686	0.904	0.746	0.618	0.749	0.739	0.686	0.871	0.75	0.68	0.538	0.526	0.384

Sequence	phosphorylation enrichment [1]	phosphorylation enrichment [2]	phosphorylation enrichment [3]	phosphorylation enrichment [4]	phosphorylation enrichment [5]	phosphorylation enrichment [6]	phosphorylation enrichment [7]	phosphorylation enrichment [8]	phosphorylation enrichment [9]	phosphorylation enrichment [10]	phosphorylation enrichment [11]	phosphorylation enrichment [12]	phosphorylation enrichment [13]	SH2 binding enrichment [14]	SH2 binding enrichment [15]	SH2 binding enrichment [16]
DISEPYKVFRI [IRF8_Y107_YF]	1.11	0.543	0.529	0.552	0.618	0.565	1.17	0.628	0.563	0.78	0.582	1	0.628	0.826	0.497	0.42
SDVSSYLEGQV [GCG_Y110_A115V]	0.924	0.616	0.534	0.532	0.735	0.547	1.24	0.557	0.511	1.09	0.478	0.838	0.52	0.81	0.569	0.479
TSSSRYFDEPV [ARFGAP3_Y356_S355R]	0.792	0.508	0.395	0.597	0.688	0.417	0.839	0.511	0.495	0.61	0.391	0.447	0.399	0.725	0.745	0.475
CTTIPYNFMCN [TP53_Y234_H233P_YF]	0.945	0.449	0.514	0.515	0.726	0.424	0.926	0.48	0.561	0.718	0.482	0.528	0.753	0.927	0.994	2.07
PYSNPYENSLI [EPOR_Y489]	1.17	0.781	0.714	0.806	1.14	2.63	1.16	0.906	0.679	1.05	0.912	0.762	1.15	3.58	0.818	5.44
DGPVNYEEFVQ [CALM2_Y139_Q136P]	1.17	1.27	1.08	0.514	0.725	0.601	1.12	0.482	0.529	1.18	0.474	0.748	0.532	0.848	0.656	0.418
QGGRHYMMIVD [GAA_Y438_R437H]	1.01	0.639	0.573	1.01	0.981	0.605	0.778	0.65	0.779	0.863	0.969	0.475	0.444	1.09	1.57	8.36
DKHGQYLIGHG [EPHB4_Y581]	0.652	0.397	0.376	0.482	0.576	0.465	0.645	0.449	0.475	0.599	0.378	0.525	0.436	0.905	0.565	0.485
ERMKVYVPTGF [EPHX1_Y393]	0.658	0.407	0.522	0.513	0.539	0.562	0.818	0.515	0.472	0.557	0.453	0.672	0.563	0.761	0.768	0.56
YRDMDYRSYPR [RBM10_Y41]	0.64	0.477	0.475	2.3	1.37	0.415	0.895	0.402	0.4	0.55	0.519	0.607	0.547	0.87	0.707	0.941
NNVEQYQAMVT [TPR_Y965_S960N]	1.08	0.599	0.634	0.581	0.721	0.528	1.14	0.542	0.551	0.779	0.523	0.683	0.485	0.67	0.765	0.754
PIMSFYAALID [RYR1_Y2426_A2421P]	1.58	1.45	1.24	0.706	1.33	0.734	1.46	0.49	0.647	1.54	0.732	0.905	0.487	0.969	0.585	0.571
DASENYFVTDS [TMEM240_Y77]	1.41	1.44	0.886	1.35	1.44	0.517	1.23	0.444	0.659	1.37	0.516	0.86	0.492	0.977	0.759	0.576
ESDGAYIHRMQ [CCDC137_Y125]	0.726	0.408	0.493	0.419	0.514	0.414	0.873	0.365	0.378	0.824	0.406	0.703	0.403	0.857	0.656	0.541
DNQYAYLKAII [HNF4A_Y288_E285Q]	1.19	0.562	0.549	2.72	1.91	0.64	1.09	0.456	1.4	1.11	1.58	3.75	0.551	0.769	0.826	0.531
AATTAYSKPKQ [MAP3K7_Y405_R410Q]										0.257		0.121	0.063	0.648	0.57	0.477
LVKDGYQTAQP [CSF1R_Y873_M875T]										1.27		0.544	1.29	0.909	0.307	1.35
